Source: paper PMC10556103, “Autoantibody binding and unique enzyme-substrate intermediate conformation of human transglutaminase 3” (Nature Communications, 2023)

What was measured:
Test in all cases: crystal structure; TG3 form mixed with Fab DH63-B02 at 1:1.1 molar ratio, complex purified by SEC; crystals in 0.1 M HEPES-MOPS pH 7.1, 16-22% ethylene glycol, 8-11% PEG 8000, 6-10 mM CaCl2, 3-10 mM MgCl2; three Ca2+ bound
Settings in all cases: both partners purified
[1] = target: T1, zymogen transglutaminase 3 (TG3), human recombinant (Homo sapiens, UniProt Q08188)
T1 construct: human transglutaminase 3, uncleaved zymogen (79 kDa), with N-terminal, catalytic core, C1 and C2 domains; the loop 461-473 is intact; also called TG3 zymogen; zymogen TG3; source: Sf9 insect cells, purified (Ni-NTA)

[2] = target: T2, dispase-cleaved TG3 (N-terminal and core domains with C1C2 non-covalently associated) (Homo sapiens, UniProt Q08188)
T2 construct: human transglutaminase 3, N-terminal and catalytic core domains (N-core, 51 kDa) left by dispase cleavage in the loop 461-473; human transglutaminase 3, the two C-terminal beta-barrel domains C1C2 (26 kDa) left by dispase cleavage in the loop 461-473; TG3 was His-tagged before cleavage; source: Sf9 insect cells, purified (Ni-NTA); cleaved with dispase I, SEC

[3] = target: T3, Z-DON-associated TG3 without C1C2 (enzyme-substrate intermediate conformer) (human, UniProt Q08188, Cys273 alkylated by Z-DON (Z-DON-Val-Pro-Leu-OMe))
T3 construct: human transglutaminase 3, N-terminal and catalytic core domains (N-core, 51 kDa) left by cleavage in the loop 461-473; TG3 was His-tagged before cleavage; The cleavage sites of dispase and cathepsin L may differ; also called cleaved TG3 + Z-DON; source: Sf9 insect cells, purified (Ni-NTA); cleaved with dispase I or cathepsin L, incubated with Z-DON, SEC

[4] = target: T4, N-terminal and core domains (N-core) of cleaved TG3 (Homo sapiens, UniProt Q08188)
T4 construct: human transglutaminase 3, N-terminal and catalytic core domains (N-core, 51 kDa) left by cleavage in the loop 461-473; also called catalytic core domain; catalytic domain; source: Sf9 insect cells, purified (Ni-NTA); cleaved with dispase I or cathepsin L, SEC

Measured: binding result

T2 sequence (Q08188 whole entry, chain 1 of 2, the tested form may be a part): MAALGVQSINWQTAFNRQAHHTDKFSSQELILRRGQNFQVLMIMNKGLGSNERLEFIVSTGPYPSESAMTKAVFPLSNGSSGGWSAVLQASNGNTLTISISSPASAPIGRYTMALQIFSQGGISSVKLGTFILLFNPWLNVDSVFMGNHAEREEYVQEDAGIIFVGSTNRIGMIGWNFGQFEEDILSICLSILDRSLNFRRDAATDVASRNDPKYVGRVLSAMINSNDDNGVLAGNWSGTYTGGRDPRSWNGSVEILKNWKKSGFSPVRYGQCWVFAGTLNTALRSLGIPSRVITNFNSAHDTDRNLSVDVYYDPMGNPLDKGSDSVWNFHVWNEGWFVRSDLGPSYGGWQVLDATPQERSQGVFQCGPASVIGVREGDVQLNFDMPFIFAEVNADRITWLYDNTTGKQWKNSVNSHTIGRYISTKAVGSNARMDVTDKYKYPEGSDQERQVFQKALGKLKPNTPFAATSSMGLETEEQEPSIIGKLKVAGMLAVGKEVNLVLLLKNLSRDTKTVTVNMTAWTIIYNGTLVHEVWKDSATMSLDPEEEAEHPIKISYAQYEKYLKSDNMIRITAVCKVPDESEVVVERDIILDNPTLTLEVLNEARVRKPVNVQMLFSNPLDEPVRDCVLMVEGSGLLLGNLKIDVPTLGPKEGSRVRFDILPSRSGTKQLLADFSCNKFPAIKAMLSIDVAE
T2 sequence (Q08188 whole entry, chain 2 of 2, the tested form may be a part): as the sequence (Q08188 whole entry, chain 1 of 2, the tested form may be a part) above
T4 sequence (Q08188 whole entry, the tested form may be a part): as the sequence (Q08188 whole entry, chain 1 of 2, the tested form may be a part) above
T1 sequence (Q08188 whole entry, the tested form may be a part): as the sequence (Q08188 whole entry, chain 1 of 2, the tested form may be a part) above
T3 sequence (Q08188 2-461): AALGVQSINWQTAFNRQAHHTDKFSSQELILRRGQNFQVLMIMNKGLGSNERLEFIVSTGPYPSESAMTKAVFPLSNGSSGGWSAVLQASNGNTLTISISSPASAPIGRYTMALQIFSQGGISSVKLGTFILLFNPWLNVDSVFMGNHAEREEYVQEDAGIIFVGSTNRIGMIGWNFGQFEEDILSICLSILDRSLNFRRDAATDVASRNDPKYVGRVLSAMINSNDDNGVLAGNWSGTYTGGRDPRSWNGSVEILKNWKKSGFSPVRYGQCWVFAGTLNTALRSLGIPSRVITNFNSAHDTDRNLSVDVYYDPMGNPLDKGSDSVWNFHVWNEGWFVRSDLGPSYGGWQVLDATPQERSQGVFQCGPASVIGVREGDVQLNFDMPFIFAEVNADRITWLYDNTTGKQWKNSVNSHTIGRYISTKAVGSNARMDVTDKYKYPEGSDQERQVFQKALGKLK

B1: Fab fragment of the anti-TG3 antibody DH63-B02 (Fab, V domains shown)
VH: EVQLVESGGGLVQPGRSLRLSCTASGFTFDDYAMHWVRQAPGKGLEWVSRISWNSRSIAYADSVKGRFTISRDSAKNSLYLQMNSLRTEDTALYYCAKDHYLGSDSYGMDVWGQGTTVTVSS
VL: NFMLTQPHSVSESPGKTVTISCTRSSGSIDSNYVQWYQQRPGSAPTIVIHEDNQRPSGVPDRFSGSIDTSSNSASLTISGLKTEDEADYYCQSYDPSNVVFGGGTKLTVL
notes: Fab heavy chain of the human antibody DH63-B02 from a dermatitis herpetiformis patient; Fab light chain of DH63-B02, purified on a resin for human lambda light chains; also called Fab DH63-B02; the Fab
binds: [1] | [2] | [3] | [4]
